Test results reported in patent US20100260668A1 (published 2010).

Experiments:
[1] = target: T1, DLL4 (DLL ECD His tag, R&D 1506-D4-050) (UniProt Q9NR61 27-529); assay: BIACORE (SPR), DVD-Ig against DLL4
T1 construct: extracellular domain; bought

VEGF = target: T2, VEGF (UniProt P15692-4 27-191); assay: BIACORE SPR
T2 construct: Bought reagent; also called vascular endothelial growth factor
T2 sequence (P15692 other isoform, or with tags, fused parts or gaps limits assumed): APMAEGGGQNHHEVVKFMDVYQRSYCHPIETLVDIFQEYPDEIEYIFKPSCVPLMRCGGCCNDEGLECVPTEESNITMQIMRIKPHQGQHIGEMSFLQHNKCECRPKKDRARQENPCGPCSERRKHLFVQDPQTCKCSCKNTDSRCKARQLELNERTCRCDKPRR

Binder | Kd [1] | koff [1] | kon [1] | Kd (VEGF) | koff (VEGF) | kon (VEGF)
DVD470 (bispecific antibody, human IgG1, kappa, DVD-Ig; N-term; VD VEGF (AB014), C-term; VD DLL4 (AB015); HC linker long, LC linker long; also called DVD-Ig DVD470; DVD470H) heavy: not shown light: DIQMTQSPSSLSASVGDRVTITCSASQDISNYLNWYQQKPGKAPKVLIYFTSSLHSGVPSRFSGSGSGTDFTLTISSLQPEDFATYYCQQYSTVPWTFGQGTKVEIKRTVAAPSVFIFPPDIQMTQSPSSLSASVGDRVTITCRASQDVSTAVAWYQQKPGKAPKLLIYSASFLYSGVPSRFSGSGSGTDFTLTISSLQPEDFATTYYCQQSYTGTVTFGQGTKVEIKRTVAAPSVFIFPPSDEQLKSGTASVVCLLNNFYPREAKVQWKVDNALQSGNSQESVTEQDSKDSTYSLSSTLTLSKADYEKHKVYACEVTHQGLSSPVTKSFNRGEC | 1.03 nM | 7.02e-05 s⁻¹ | 68400 M⁻¹ s⁻¹ | – | – | –
DVD482 (bispecific antibody, human IgG1, kappa, DVD-Ig; N-term; VD VEGF (AB014), C-term; VD DLL4 (AB015); HC linker short, LC linker long; also called DVD-Ig DVD482; DVD482H) heavy: not shown light: DIQMTQSPSSLSASVGDRVTITCSASQDISNYLNWYQQKPGKAPKVLIYFTSSLHSGVPSRFSGSGSGTDFTLTISSLQPEDFATYYCQQYSTVPWTFGQGTKVEIKRTVAAPSVFIFPPDIQMTQSPSSLSASVGDRVTITCRASQDVSTAVAWYQQKPGKAPKLLIYSASFLYSGVPSRFSGSGSGTDFTLTISSLQPEDFATTYYCQQSYTGTVTFGQGTKVEIKRTVAAPSVFIFPPSDEQLKSGTASVVCLLNNFYPREAKVQWKVDNALQSGNSQESVTEQDSKDSTYSLSSTLTLSKADYEKHKVYACEVTHQGLSSPVTKSFNRGEC | 2.08 nM | 0.000232 s⁻¹ | 111000 M⁻¹ s⁻¹ | – | – | –
DVD515 (bispecific antibody, human IgG1, kappa, DVD-Ig; N-term; AB073 (DLL4), C-term; AB071 (VEGF); HC linker short, LC linker short; also called DVD515H; DVD515L) heavy: not shown light: QAVVTQESALTTSPGETVTLTCRSSTGAVTTSNYANWVQEKPDHLFTGLIGGTNNRAPGVPARFSGSLIGDKAALTITGAQTEDEAIYFCALWYSNHWVFGGGTKLTVLGQPKAAPDIQMTQSPSSLSASVGDRVTITCRASQVIRRSLAWYQQKPGKAPKLLIYAASNLASGVPSRFSGSGSGTDFTLTISSLQPEDFATYYCQQSNTSPLTFGQGTKVEIKRTVAAPSVFIFPPSDEQLKSGTASVVCLLNNFYPREAKVQWKVDNALQSGNSQESVTEQDSKDSTYSLSSTLTLSKADYEKHKVYACEVTHQGLSSPVTKSFNRGEC | – | – | – | 1.45 nM | 0.000585 s⁻¹ | 405000 M⁻¹ s⁻¹

Other lines, results leading:

Kd [1] | koff [1] | kon [1] | Kd (VEGF) | koff (VEGF) | kon (VEGF) | Binder
– | – | – | 0.842 nM | 0.000446 s⁻¹ | 529000 M⁻¹ s⁻¹ | DVD527 (bispecific antibody, human IgG1, kappa, DVD-Ig; N-term; AB073 (DLL4), C-term; AB071 (VEGF); HC linker long, LC linker short; also called DVD527H; DVD527L) heavy: not shown light: QAVVTQESALTTSPGETVTLTCRSSTGAVTTSNYANWVQEKPDHLFTGLIGGTNNRAPGVPARFSGSLIGDKAALTITGAQTEDEAIYFCALWYSNHWVFGGGTKLTVLGQPKAAPDIQMTQSPSSLSASVGDRVTITCRASQVIRRSLAWYQQKPGKAPKLLIYAASNLASGVPSRFSGSGSGTDFTLTISSLQPEDFATYYCQQSNTSPLTFGQGTKVEIKRTVAAPSVFIFPPSDEQLKSGTASVVCLLNNFYPREAKVQWKVDNALQSGNSQESVTEQDSKDSTYSLSSTLTLSKADYEKHKVYACEVTHQGLSSPVTKSFNRGEC
– | – | – | 0.668 nM | 8.37e-05 s⁻¹ | 125000 M⁻¹ s⁻¹ | DVD497 (bispecific antibody, human IgG1, kappa, DVD-Ig; N-term; AB072 (DLL4), C-term; AB071 (VEGF); HC linker long, LC linker long; also called DVD497H; DVD497L) heavy: not shown light: DIQMTQSSSYLSVSLGGRVTITCKASDHINNWLAWYQQKPGNAPRLLISGATSLETGVPSRFSGSGSGKDYTLSITSLQTEDVATYYCQQYWSIPLTFGAGTKLELKRTVAAPSVFIFPPDIQMTQSPSSLSASVGDRVTITCRASQVIRRSLAWYQQKPGKAPKLLIYAASNLASGVPSRFSGSGSGTDFTLTISSLQPEDFATYYCQQSNTSPLTFGQGTKVEIKRTVAAPSVFIFPPSDEQLKSGTASVVCLLNNFYPREAKVQWKVDNALQSGNSQESVTEQDSKDSTYSLSSTLTLSKADYEKHKVYACEVTHQGLSSPVTKSFNRGEC
– | – | – | 0.0613 nM | 7.83e-06 s⁻¹ | 128000 M⁻¹ s⁻¹ | DVD509 (bispecific antibody, human IgG1, kappa, DVD-Ig; N-term; AB072 (DLL4), C-term; AB071 (VEGF); HC linker short, LC linker long; also called DVD509H; DVD509L) heavy: not shown light: DIQMTQSSSYLSVSLGGRVTITCKASDHINNWLAWYQQKPGNAPRLLISGATSLETGVPSRFSGSGSGKDYTLSITSLQTEDVATYYCQQYWSIPLTFGAGTKLELKRTVAAPSVFIFPPDIQMTQSPSSLSASVGDRVTITCRASQVIRRSLAWYQQKPGKAPKLLIYAASNLASGVPSRFSGSGSGTDFTLTISSLQPEDFATYYCQQSNTSPLTFGQGTKVEIKRTVAAPSVFIFPPSDEQLKSGTASVVCLLNNFYPREAKVQWKVDNALQSGNSQESVTEQDSKDSTYSLSSTLTLSKADYEKHKVYACEVTHQGLSSPVTKSFNRGEC
– | – | – | 0.00148 nM | 1.74e-07 s⁻¹ | 118000 M⁻¹ s⁻¹ | DVD468 (bispecific antibody, human IgG1, kappa, DVD-Ig; N-term; AB071 (VEGF), C-term; AB015 (DLL4); HC linker short, LC linker short; also called DVD468H; DVD468L) heavy: not shown light: DIQMTQSPSSLSASVGDRVTITCRASQVIRRSLAWYQQKPGKAPKLLIYAASNLASGVPSRFSGSGSGTDFTLTISSLQPEDFATYYCQQSNTSPLTFGQGTKVEIKRTVAAPDIQMTQSPSSLSASVGDRVTITCRASQDVSTAVAWYQQKPGKAPKLLIYSASFLYSGVPSRFSGSGSGTDFTLTISSLQPEDFATTYYCQQSYTGTVTFGQGTKVEIKRTVAAPSVFIFPPSDEQLKSGTASVVCLLNNFYPREAKVQWKVDNALQSGNSQESVTEQDSKDSTYSLSSTLTLSKADYEKHKVYACEVTHQGLSSPVTKSFNRGEC
